Laboratory results published in article PMC3572902.

B1: human anti-V2 monoclonal antibody 697 (antibody, V domains shown)
VH: QVQLVQSGAEVKKPGSSVKVSCKASGGNFNTYTISWVRQAPGQGLEWMGRIIPIFGIVNPAQKFPGRVTINVDKSTNTAYMELSSLRSEDTAVYYCATSGVGLHFGYFDYWGQGTQVTVSS
VL: QSVLTQPPSVSGAPGQRVTISCTGSSSNIGAHYDVHWYQQLPGTAPKLLIYGNSNRPSGVPDRFSGSKSGTSASLAITGLQAEDEADYYCQSYDSSLSGYVFGTGTKVTVL

Legend:
[1] = molecular target: recombinant gp120 JR-FL (HIV-1); experiment: ELISA
[2] = molecular target: Env of pseudovirus SS1196.1 (HIV-1)
[3] = molecular target: Env of pseudovirus SF162.LS (HIV-1)
[4] = molecular target: Env of pseudovirus Bx08.16 (HIV-1)
[5] = molecular target: Env of pseudovirus HXB2.DG (HIV-1) (UniProt P04578)
[6] = molecular target: Env of pseudovirus MW965.26 (HIV-1)
[7] = molecular target: Env of pseudovirus 6535.3 (HIV-1)
[8] = molecular target: Env of pseudovirus BaL.26 (HIV-1)
[9] = molecular target: recombinant gp120 MSC5007 (HIV-1); experiment: ELISA
[10] = molecular target: Env of pseudovirus DJ263.8 (HIV-1)
[11] = molecular target: recombinant gp120 ZM53M (HIV-1); experiment: ELISA
[12] = molecular target: recombinant gp120 REJO4541 (HIV-1); experiment: ELISA
[13] = molecular target: fusion protein V1V2_(Case-A2)-gp70 (HIV-1); experiment: ELISA

Row | Molecule | O.D. (ELISA, mAb at 10 μg/ml) [1] [O.D.] | IC50 of neutralisation of pseudovirus SS1196.1 (TZM-bl cell assay) [2] [µg/mL] | IC50 of neutralisation of pseudovirus SF162.LS (TZM-bl cell assay) [3] [µg/mL] | IC50 of neutralisation of pseudovirus Bx08.16 (TZM-bl cell assay) [4] [µg/mL] | IC50 of neutralisation of pseudovirus HXB2.DG (TZM-bl cell assay) [5] [µg/mL] | IC50 of neutralisation of pseudovirus MW965.26 (TZM-bl cell assay) [6] [µg/mL] | IC50 of neutralisation of pseudovirus 6535.3 (TZM-bl cell assay) [7] [µg/mL] | IC50 of neutralisation of pseudovirus BaL.26 (TZM-bl cell assay) [8] [µg/mL] | O.D. (ELISA, mAb at 10 μg/ml) [9] [O.D.] | IC50 of neutralisation of pseudovirus DJ263.8 (TZM-bl cell assay) [10] [µg/mL] | O.D. (ELISA, mAb at 10 μg/ml) [11] [O.D.] | O.D. (ELISA, mAb at 10 μg/ml) [12] [O.D.] | percent inhibition of the binding of biotinylated 697 to V1V2-gp70 [13] [%]
1 | human anti-V2 monoclonal antibody 697 | 4 |  |  |  |  |  |  |  |  |  |  |  | 
2 | human anti-V2 monoclonal antibody 830A |  | > 50 | 6.2 | > 50 | > 50 | < 0.4 | > 50 | 36.1 | 4 |  |  |  | 
3 | human anti-V2 monoclonal antibody 1357 | 4 |  | 33.5 |  | 36.9 | 0.8 |  |  |  | 29.2 |  |  | 
4 | human anti-V2 monoclonal antibody 1361 |  | 23.8 | 5.4 |  | 18.6 | < 0.4 |  |  |  | 11.8 | 4 |  | 
5 | human anti-V2 monoclonal antibody 1393A | 4 | 88.7 | 12.5 |  | 19.8 | 0.8 |  |  |  | 11.1 |  |  | 
6 | human anti-V2 monoclonal antibody 2158 |  | 27.6 | 6.4 |  | 17.8 | 0.8 |  |  |  |  |  |  | 
7 | human anti-V2 monoclonal antibody 2297 |  |  |  |  |  |  |  |  |  |  |  | 4 | 47
8 | B1 |  | 16.8 | 19.9 | 11.2 |  | 1.8 |  | 20.2 |  | 38.6 |  |  | 
